What was measured:
[1] = target: 14-3-3ε:ζ heterodimer (UniProt P62258)
[2] = target: T1, GST-14-3-3γ:γ homodimer (UniProt P61981)
T1 sequence: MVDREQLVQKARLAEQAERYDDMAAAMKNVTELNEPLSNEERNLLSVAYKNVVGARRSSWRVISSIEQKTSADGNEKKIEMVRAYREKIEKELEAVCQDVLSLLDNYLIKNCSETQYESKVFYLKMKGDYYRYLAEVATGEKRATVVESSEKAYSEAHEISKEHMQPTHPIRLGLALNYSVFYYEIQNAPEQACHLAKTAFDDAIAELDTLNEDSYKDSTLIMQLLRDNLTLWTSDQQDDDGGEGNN

Sequence of UniProt P62258 (P62258 whole entry, chain 1 of 2): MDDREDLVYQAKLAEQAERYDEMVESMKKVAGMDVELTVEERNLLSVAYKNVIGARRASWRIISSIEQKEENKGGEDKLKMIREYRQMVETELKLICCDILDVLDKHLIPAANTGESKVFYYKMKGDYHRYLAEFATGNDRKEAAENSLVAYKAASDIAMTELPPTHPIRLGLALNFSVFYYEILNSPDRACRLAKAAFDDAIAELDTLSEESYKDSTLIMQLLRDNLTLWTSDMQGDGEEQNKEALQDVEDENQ
Sequence of UniProt P62258 (P62258 other isoform, or with tags, fused parts or gaps, chain 2 of 2): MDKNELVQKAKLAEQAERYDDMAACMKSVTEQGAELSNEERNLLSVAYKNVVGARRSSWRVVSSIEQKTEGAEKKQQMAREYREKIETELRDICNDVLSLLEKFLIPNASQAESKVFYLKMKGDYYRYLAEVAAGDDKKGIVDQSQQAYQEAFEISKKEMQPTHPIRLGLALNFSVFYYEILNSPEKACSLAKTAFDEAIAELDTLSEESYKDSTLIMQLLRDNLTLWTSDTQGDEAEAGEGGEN

relative activation of bTH-pS19 activity (maximal, 12.5–100 µg/ml thrombin-cleaved 14-3-3, BH4 as cofactor); lowest activation [1]: 3.3 fold
relative activation of bTH-pS19 activity (maximal, 12.5–100 µg/ml thrombin-cleaved 14-3-3, BH4 as cofactor); highest activation [2]: 4.4 fold
Substance: bovine tyrosine hydroxylase phosphorylated by PRAK on Ser19 (from UniProt P17289 1-491) (enzyme)

Reference: PMC4833811
